{"source": "patent US20060084097", "proteins": {"B1": {"name": "mouse ATE1-1 R-transferase C-terminally tagged with the polyoma and His6 epitopes (protein)", "chain": "MASWSAPSPSLVEYFEGQTSFQCGYCKNKLGSRSYGMWAHSMTVQDYQDLIDRGWRRSGKYVYKPVMDQTCCPQYTIRCHPLQFQPSKSHKKVLKKMLKFLAKGEISKGNCEDEPMDSTVEDAVDGDFALINKLDIKCDLKTLSDLKGSIESEEKEKEKSIKKEGSKEFIHPQSIEEKLGSGEPSHPIKVHIGPKPGKGADLSKPPCRKAREMRKERQRLKRMQQASAAASEAQGQPVCLLPKAKSNQPKSLEDLIFQSLPENASHKLEVRVVRSSPPSPQFRATFQESYQVYKRYQMVVHKDPPDKPTVSQFTRFLCSSPLEAEHPADGPECGYGSFHQQYWLDGKIIAVGVLDILPYCVSSVYLYYDPDYSFLSLGVYSALREIAFTRQLHEKTSQLSYYYMGFYIHSCPKMRYKGQYRPSDLLCPETYVWVPIEQCLPSLDNSKYCRFNQDPEAEDEGRSKELDRLRVFHRRSAMPYGVYKNHQEDPSEEAGVLEYANLVGQKCSERMLLFRHHHHHHH"}, "B2": {"name": "S. cerevisiae ATE1 Arg-tRNA-protein transferase C-terminally tagged with His6 (protein)", "chain": "MSDRFVIWAPSMHNEPAAKCGYCHGNKGGNMDQLFALDSWAHRYMNKMDVVKIENCTIGSFVEHMDVATYDRMCNMGFRRSGKFLYKVDPLRNCCRLYTIRTAPQELNMTKELKKCISRFATRITSEDYCPAAVASSDFVGKIVNAEMNSKTFYTRFEPALYSEEKYHLFVKYQEKVHQDYNNSPKSFKRFLCDTPFGPEAVLGTQESWEQLNNWQRMKPGEKLKHMGPVHECYYYEGKLIAITVSDILPSGISSVYFIWDPDYSKWSLGKLSALRDLAIIQRTNLQYYYLGYYIEDCPKMNYKANYGAEVLDVCHSKYIPLKPIQDMISRGKLFVIGEEETKVTKELYLVDSETGRGEGFPTDNVVKYKNIAEEIYGVGGCAFKSANESALELKELYGIPYEEEDLDTIYHLKEHNGHAPNGIPNVVPGLLPLWELLDIMQSGKITDLEGRLFLFEIETEGIRPLINFYSEPPNVKKRICDVIRLFGFETCMKAVILYSEQMHHHHHH"}}, "key": {"[1]": {"target": "T1, CysO3H-peptide", "T1 chain": "CHGSGAWL"}, "[2]": {"target": "Asp-RGS4 (X-RGS4-flag, X=Asp)"}, "[3]": {"target": "Val-RGS4 (X-RGS4-flag, X=Val)"}, "[4]": {"target": "T2, 8-residue Cys-peptide (CHGSGAWL)", "T2 chain": "CHGSGAWL"}, "[5]": {"target": "Cys-RGS4 (X-RGS4-flag, X=Cys)"}, "[6]": {"target": "T3, 8-residue Asp-peptide (DHGSGAWL)", "T3 chain": "CHSGAWL"}}, "data": [{"protein": "B1", "values": [{"measurement": "arginylation of peptide (capillary electrophoresis, MALDI-TOF MS), pH 7.5", "setting": "[1]", "value": "the Asp-peptide and the CysO3H-peptide were efficiently arginylated"}, {"measurement": "3H-arginine conjugation (SDS-PAGE and fluorography)", "setting": "[2]", "value": "Asp-RGS4 was efficiently arginylated irrespective of NO pretreatment"}, {"measurement": "3H-arginine conjugation (SDS-PAGE and fluorography)", "setting": "[3]", "value": "Val-RGS4 was not arginylated"}, {"measurement": "arginylation of peptide (capillary electrophoresis), pH 9.0", "setting": "[4]", "value": "arginylation of Cys-peptide was undetectable even at pH 9.0, in contrast to arginylation of CysO3H-peptide and Asp-peptide"}, {"measurement": "arginylation of peptide (capillary electrophoresis, MALDI-TOF MS), pH 7.5", "setting": "[4]", "value": "the Cys-peptide was not arginylated"}, {"measurement": "3H-arginine conjugation (SDS-PAGE and fluorography)", "setting": "[5]", "value": "a virtually complete dependence of the in vitro arginylation of Cys-RGS4 on its prior exposure to a donor of NO"}, {"measurement": "arginylation of peptide (capillary electrophoresis, MALDI-TOF MS), pH 7.5", "setting": "[6]", "value": "the Asp-peptide and the CysO3H-peptide were efficiently arginylated"}]}, {"protein": "B2", "values": [{"measurement": "arginylation of peptide (capillary electrophoresis)", "setting": "[1]", "value": "Yeast R-transferase efficiently arginylated CysO3H-peptide, but not Cys-peptide"}, {"measurement": "arginylation of peptide (capillary electrophoresis)", "setting": "[4]", "value": "Yeast R-transferase efficiently arginylated CysO3H-peptide, but not Cys-peptide"}, {"measurement": "arginylation of peptide (capillary electrophoresis)", "setting": "[6]", "value": "The same results were obtained when mouse ATE1-1 was replaced, in the above assays, with purified S. cerevisiae ATE1 R-transferase"}]}]}
